Results as given in the supplement of paper PMC7877785.
± gives the uncertainty stated by the source.

Assay: self-splicing fitness, log relative to wild type (ln ratio); higher = more splicing; Tetrahymena group I intron in knt gene, E. coli kanamycin selection, DiMSum; sequences stand for … in CUCUCU…GGAGGGAAAAGUUAUCAGGCAUGCACCUGGUAGCUAGUCUUUAAACCAAUAGAUUGCAUCGGUUUAAAAGGCAAGACCGUCAAAUUGCGGGAAAGGGGUCAACAGCCGUUCAGUACCAAGUCUCAGGGGAAACUUUGAGAUGGCCUUGCAAAGGGUAUGGUAAUAAGCUGACGGACAUGGUCCUAACCACGCAGCCAAGUCCUAAGUCAACAGAUCUUCUGUUGAUAUGGAUGCAGUUCACAGACUAAAUGUCGGUCGGGGAAGAUGUAUUCUUCUCAUAAGAUAUAGUCGGACCUCUCCUUAAUGGGAGCUAGCGGAUGAAGUGAUGCAACACUGGAGCCGCUGGGAACUAAUUUGUAUGCGAAAGUAUAUUGAUUAGUUUUGGAGUACUCGUGGUCG
Summary of the method: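 Pooled colonies went to amplicon sequencing on an Illumina HiSeq 2500 after six replicate transformations. The plates were LB agar with 100 μg/mL carbenicillin, 50 μM IPTG and 0.2% rhamnose, with or without 25 μg/mL kanamycin, incubated overnight at 37°C or 30°C. The E. coli BL21(DE3) library had all eight P1ex-region intron nucleotides randomised, the intron placed in the knt kanamycin-resistance gene on pET-22b(+). DiMSum fitness is the error-weighted combination of replicate fold changes, kanamycin against none, normalised to wild type.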

Sequence | self-splicing fitness (ln) (30 °C) | self-splicing fitness (ln) (37 °C)
UUGAAGCAAUAUUACGCUCA | -0.439 ± 0.12 | 1.17 ± 0.19
AGCAAGCAAUAUUACGUCUA | -0.673 ± 0.062 | -0.456 ± 0.08
UACCAGCAAUAUUACGUAAA | -0.982 ± 0.071 | -0.408 ± 0.097
AACGAGCAAUAUUACGGUCG | -2.14 ± 0.13 | -1.02 ± 0.14
GCGAAGCAAUAUUACGGAAG | -2.62 ± 0.18 | -1.93 ± 0.16
CAACAGCAAUAUUACGAAGG | -0.969 ± 0.059 | -0.0092 ± 0.078
UAUUAGCAAUAUUACGGAUC | -1.65 ± 0.18 | -0.508 ± 0.28
CCUGAGCAAUAUUACGUGGA | -3.5 ± 0.2 | -2.03 ± 0.18
ACUUAGCAAUAUUACGCAAC | -2.89 ± 0.19 | -1.72 ± 0.17
UAUGAGCAAUAUUACGAAUA | -2.94 ± 0.27 | -2.22 ± 0.21
UAUUAGCAAUAUUACGUGAC | -2.92 ± 0.42 | -1.82 ± 0.27
CGUGAGCAAUAUUACGCUCU | -1.76 ± 0.36 | –
CGUUAGCAAUAUUACGAGAA | -1.93 ± 0.49 | -1.45 ± 0.46
CGGGAGCAAUAUUACGGCUA | -2.44 ± 0.39 | –
CGAUAGCAAUAUUACGGAAG | -1.53 ± 0.083 | -0.509 ± 0.11
GAUUAGCAAUAUUACGCCGC | -3.47 ± 0.24 | -2.28 ± 0.21
GGGCAGCAAUAUUACGCCUU | -3.55 ± 0.29 | -2.13 ± 0.22
CCUGAGCAAUAUUACGCAUA | -3.03 ± 0.32 | -2.83 ± 0.47
UUUCAGCAAUAUUACGGUAG | -0.521 ± 0.088 | -0.526 ± 0.12
CCUAAGCAAUAUUACGAUCA | -3.57 ± 0.28 | -3 ± 0.25

Sequence | self-splicing fitness (ln) (30 °C) | self-splicing fitness (ln) (37 °C)
AGCUAGCAAUAUUACGGUAG | -3.91 ± 0.27 | -3.18 ± 0.23
CAGAAGCAAUAUUACGGGGU | -2.98 ± 0.19 | -2.34 ± 0.21
CUUGAGCAAUAUUACGCUGU | -2.28 ± 0.19 | -2.06 ± 0.32
CCGGAGCAAUAUUACGUGGA | -3.59 ± 0.47 | -2.16 ± 0.25
GUCUAGCAAUAUUACGCGGU | -1.78 ± 0.26 | -1.04 ± 0.38
GAGAAGCAAUAUUACGAUCA | -1.06 ± 0.15 | -0.469 ± 0.16
UUAAAGCAAUAUUACGCUAU | -3.01 ± 0.14 | -0.748 ± 0.1
UGCUAGCAAUAUUACGCACG | -1.27 ± 0.12 | -1.18 ± 0.16
CCAUAGCAAUAUUACGGUGU | -4.24 ± 0.17 | -2.58 ± 0.15
AGUAAGCAAUAUUACGGUCA | -0.817 ± 0.074 | 0.0737 ± 0.081
GGGAAGCAAUAUUACGCUGU | -2.38 ± 0.14 | -1.45 ± 0.16
CAGCAGCAAUAUUACGACCU | -2.57 ± 0.14 | -1.57 ± 0.12
CCGCAGCAAUAUUACGAAUA | -3.37 ± 0.38 | -2.62 ± 0.38
UUAGAGCAAUAUUACGUCGA | -1.18 ± 0.12 | 0.172 ± 0.14
CAUGAGCAAUAUUACGGUAU | -4 ± 0.39 | -3.54 ± 0.33
GUUCAGCAAUAUUACGUCGA | -0.842 ± 0.15 | -0.398 ± 0.13
CGCAAGCAAUAUUACGUGGU | -3.75 ± 0.17 | -3.22 ± 0.19
AACGAGCAAUAUUACGGAAA | -3.63 ± 0.23 | -2.65 ± 0.24
GGUGAGCAAUAUUACGGUGG | -3.06 ± 0.26 | -2.88 ± 0.32
ACGUAGCAAUAUUACGGCGC | -1.11 ± 0.083 | -0.695 ± 0.098

Sequence | self-splicing fitness (ln) (30 °C) | self-splicing fitness (ln) (37 °C)
ACUGAGCAAUAUUACGUGAC | -3.23 ± 0.2 | -2.95 ± 0.27
ACGAAGCAAUAUUACGUCGC | -3.22 ± 0.21 | -1.24 ± 0.17
UCAGAGCAAUAUUACGGCUA | -2.46 ± 0.28 | -2.11 ± 0.24
GGUUAGCAAUAUUACGCUCA | -1.34 ± 0.2 | -0.632 ± 0.19
UGGUAGCAAUAUUACGUAAC | -2.08 ± 0.45 | –
GUACAGCAAUAUUACGGGAA | -3.59 ± 0.25 | -2.24 ± 0.22
CCUGAGCAAUAUUACGAUUG | -2.48 ± 0.17 | -2.83 ± 0.27
AGCGAGCAAUAUUACGCUCA | -2.59 ± 0.21 | -2.5 ± 0.26
GUGCAGCAAUAUUACGCAUA | -1.7 ± 0.18 | -0.534 ± 0.14
CCCCAGCAAUAUUACGCCUC | -3.25 ± 0.21 | -1.6 ± 0.21
GGCGAGCAAUAUUACGCGUA | -1.09 ± 0.17 | -0.484 ± 0.15
AAUCAGCAAUAUUACGGCCU | 0.091 ± 0.13 | 0.245 ± 0.15
UCACAGCAAUAUUACGUCCU | -3.15 ± 0.19 | -2.27 ± 0.15
CCAGAGCAAUAUUACGCGGC | -3.88 ± 0.39 | -2.96 ± 0.24
GGACAGCAAUAUUACGGGUC | -3.54 ± 0.23 | -2.56 ± 0.26
UGACAGCAAUAUUACGGUGA | -0.731 ± 0.052 | 0.000318 ± 0.071
UGGGAGCAAUAUUACGAGCU | -3.52 ± 0.37 | -1.69 ± 0.25
UGGAAGCAAUAUUACGGCAU | -1.94 ± 0.19 | -1.13 ± 0.19
CACUAGCAAUAUUACGUCAA | -3.77 ± 0.22 | -2.27 ± 0.14
AUAAAGCAAUAUUACGCGCU | -0.372 ± 0.1 | -0.603 ± 0.12
